Measured values reported in patent US20250262210A1 (TRUSTEES OF COLUMBIA UNIVERSITY IN THE CITY OF NEW YORK, published 2025).

What was measured:
PPFIBP1 = target: T1, PPFIBP1 (human, UniProt Q86W92 1-1011, limits assumed); assay: IP/MS, LZTR1 R810W-FLAG, U87
T1 sequence (looked up): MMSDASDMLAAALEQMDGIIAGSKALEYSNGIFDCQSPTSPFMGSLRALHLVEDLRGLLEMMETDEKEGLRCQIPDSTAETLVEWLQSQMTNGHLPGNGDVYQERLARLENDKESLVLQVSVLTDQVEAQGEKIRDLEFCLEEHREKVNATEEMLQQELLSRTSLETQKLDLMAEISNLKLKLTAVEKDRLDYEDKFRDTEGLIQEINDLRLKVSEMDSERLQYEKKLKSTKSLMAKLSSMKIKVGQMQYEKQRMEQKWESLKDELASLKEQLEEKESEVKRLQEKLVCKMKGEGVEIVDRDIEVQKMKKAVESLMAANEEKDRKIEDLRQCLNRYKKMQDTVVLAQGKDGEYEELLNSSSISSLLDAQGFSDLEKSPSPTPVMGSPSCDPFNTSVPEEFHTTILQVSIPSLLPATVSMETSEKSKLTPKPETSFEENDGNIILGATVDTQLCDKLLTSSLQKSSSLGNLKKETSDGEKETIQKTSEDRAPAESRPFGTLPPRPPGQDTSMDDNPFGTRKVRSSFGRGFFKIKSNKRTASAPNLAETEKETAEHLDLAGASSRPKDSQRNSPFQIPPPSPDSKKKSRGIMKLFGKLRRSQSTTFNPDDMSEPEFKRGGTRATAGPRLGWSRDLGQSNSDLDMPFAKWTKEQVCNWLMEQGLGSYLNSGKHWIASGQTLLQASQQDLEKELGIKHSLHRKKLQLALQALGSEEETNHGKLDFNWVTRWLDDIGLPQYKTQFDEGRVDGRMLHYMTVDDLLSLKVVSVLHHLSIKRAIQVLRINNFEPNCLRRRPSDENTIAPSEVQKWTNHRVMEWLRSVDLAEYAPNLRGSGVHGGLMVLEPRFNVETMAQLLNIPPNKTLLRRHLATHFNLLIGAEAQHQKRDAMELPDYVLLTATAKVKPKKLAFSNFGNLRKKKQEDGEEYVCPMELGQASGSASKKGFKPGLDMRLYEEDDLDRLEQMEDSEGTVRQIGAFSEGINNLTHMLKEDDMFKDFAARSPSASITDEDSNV
Procedure, shortened: (§1)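 Extracted peptides in 3% acetonitrile/0.1% formic acid ran on a 50 cm C18 column into an Orbitrap Fusion, with MaxQuant identification and spectral counting.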

RPAP1 = target: T2, RPAP1 (human, UniProt Q9BWH6 1-1393, limits assumed); assay: IP/MS, LZTR1 R810W-FLAG, U87
T2 sequence (looked up): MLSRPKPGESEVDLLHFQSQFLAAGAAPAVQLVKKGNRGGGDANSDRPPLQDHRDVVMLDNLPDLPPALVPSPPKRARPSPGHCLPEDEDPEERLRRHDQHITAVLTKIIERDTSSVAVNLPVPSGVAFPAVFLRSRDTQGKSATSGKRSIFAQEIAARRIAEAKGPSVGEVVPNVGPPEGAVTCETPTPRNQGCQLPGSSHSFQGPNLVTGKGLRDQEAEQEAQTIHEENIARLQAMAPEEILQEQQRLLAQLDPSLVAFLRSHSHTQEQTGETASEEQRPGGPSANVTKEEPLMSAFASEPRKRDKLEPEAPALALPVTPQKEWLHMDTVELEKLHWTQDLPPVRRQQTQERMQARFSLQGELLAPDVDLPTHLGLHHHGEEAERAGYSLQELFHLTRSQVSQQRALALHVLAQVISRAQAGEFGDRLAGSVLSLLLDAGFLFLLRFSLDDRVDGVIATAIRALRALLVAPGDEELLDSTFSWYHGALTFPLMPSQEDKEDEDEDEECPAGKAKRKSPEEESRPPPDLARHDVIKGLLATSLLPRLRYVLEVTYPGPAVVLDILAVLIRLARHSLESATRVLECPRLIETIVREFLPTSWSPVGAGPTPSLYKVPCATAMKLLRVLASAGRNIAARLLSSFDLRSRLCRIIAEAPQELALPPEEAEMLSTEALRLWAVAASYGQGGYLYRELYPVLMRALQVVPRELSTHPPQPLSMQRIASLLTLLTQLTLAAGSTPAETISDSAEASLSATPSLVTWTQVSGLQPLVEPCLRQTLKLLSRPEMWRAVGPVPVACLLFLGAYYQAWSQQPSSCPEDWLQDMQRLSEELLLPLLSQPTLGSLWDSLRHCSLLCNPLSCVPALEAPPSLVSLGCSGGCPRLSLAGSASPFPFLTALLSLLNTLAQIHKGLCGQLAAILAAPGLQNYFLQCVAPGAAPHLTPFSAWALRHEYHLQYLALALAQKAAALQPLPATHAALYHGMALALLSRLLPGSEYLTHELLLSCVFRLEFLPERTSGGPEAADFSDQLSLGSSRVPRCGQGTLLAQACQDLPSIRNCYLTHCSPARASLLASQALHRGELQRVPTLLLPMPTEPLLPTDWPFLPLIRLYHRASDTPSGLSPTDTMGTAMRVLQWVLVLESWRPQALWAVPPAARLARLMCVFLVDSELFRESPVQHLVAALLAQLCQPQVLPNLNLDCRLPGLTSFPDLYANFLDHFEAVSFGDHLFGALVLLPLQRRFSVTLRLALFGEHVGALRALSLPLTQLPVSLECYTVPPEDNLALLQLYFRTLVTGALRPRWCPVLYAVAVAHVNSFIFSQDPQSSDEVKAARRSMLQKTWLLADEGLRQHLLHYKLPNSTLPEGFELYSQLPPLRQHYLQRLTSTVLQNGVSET
Procedure, shortened: as §1

B1: LZTR1 R810W-FLAG (other, human, UniProt Q8N653 1-840, looked up)
chain: MAGPGSTGGQIGAAALAGGARSKVAPSVDFDHSCSDSVEYLTLNFGPFETVHRWRRLPPCDEFVGARRSKHTVVAYKDAIYVFGGDNGKTMLNDLLRFDVKDCSWCRAFTTGTPPAPRYHHSAVVYGSSMFVFGGYTGDIYSNSNLKNKNDLFEYKFATGQWTEWKIEGRLPVARSAHGATVYSDKLWIFAGYDGNARLNDMWTIGLQDRELTCWEEVAQSGEIPPSCCNFPVAVCRDKMFVFSGQSGAKITNNLFQFEFKDKTWTRIPTEHLLRGSPPPPQRRYGHTMVAFDRHLYVFGGAADNTLPNELHCYDVDFQTWEVVQPSSDSEVGGAEVPERACASEEVPTLTYEERVGFKKSRDVFGLDFGTTSAKQPTQPASELPSGRLFHAAAVISDAMYIFGGTVDNNIRSGEMYRFQFSCYPKCTLHEDYGRLWESRQFCDVEFVLGEKEECVQGHVAIVTARSRWLRRKITQARERLAQKLEQEAAPVPREAPGVAAGGARPPLLHVAIREAEARPFEVLMQFLYTDKIKYPRKGHVEDVLLIMDVYKLALSFQLCRLEQLCRQYIEASVDLQNVLVVCESAARLQLSQLKEHCLNFVVKESHFNQVIMMKEFERLSSPLIVEIVRRKQQPPPRTPLDQPVDIGTSLIQDMKAYLEGAGAEFCDITLLLDGHPRPAHKAILAARSSYFEAMFRSFMPEDGQVNISIGEMVPSRQAFESMLRYIYYGEVNMPPEDSLYLFAAPYYYGFYNNRLQAYCKQNLEMNVTVQNVLQILEAADKTQALDMKRHCLHIIVHQFTKVSKLPTLWSLSQQLLLDIIDSLASHISDKQCAELGADI
notes: Stably expressed in U87 cells by lentivirus; also called LZTR1-FLAG-R810W; LZTR1 RW; not shown: FLAG tag
binding result (PPFIBP1): binds | binding result (RPAP1): binds
